# From patent US20190119388A1 (GREEN CROSS, published 2019)
# B1: GC1118 (antibody, human IgG1, kappa, V domains shown)
# VH: EVQLVESGGGVVQPGGSLRLSCAASGFTFSDYDMSWIRQAPGKGLEWVSGILGGSERSYYRDSVKGRFTISRDNSRKTLYLQMNSLRAEDTAVYYCARHGSPGYTLYAWDYWGQGTTVTVSS
# VL: DIVMTQTPLSLPVTPGEPASISCRSNQDLTHSNGNTYLEWYLQKPGQSPRLLIYKVSNRFSGVPDRFSGSGAGTDFTLRISRVEAEDVGVYYCMQGTHWPWTFGQGTKVDIKR
# Tests used:
# Assay in all cases: cell-based or functional assay
# [1] = molecular target: epidermal growth factor receptor (EGFR) on gastric cancer cell lines NCI-N87, AGS and NUGC3 (UniProt P00533)
# [2] = molecular target: T1, epidermal growth factor receptor (EGFR) on gastric cancer cell lines NCI-N87, AGS and NUGC3 (UniProt P00533 25-1210, limits assumed)
# [3] = molecular target: T1, epidermal growth factor receptor (EGFR) …; remark: listed apart in the source
# [4] = molecular target: T1, epidermal growth factor receptor (EGFR) …; remark: listed apart in the source
# [5] = molecular target: T1, epidermal growth factor receptor (EGFR) …; remark: listed apart in the source
# [6] = molecular target: T1, epidermal growth factor receptor (EGFR) …; remark: listed apart in the source
# [7] = molecular target: T1, epidermal growth factor receptor (EGFR) …; remark: listed apart in the source
molecule,measurement,setting,value
HB-EGF (heparin binding-EGF-like growth factor) (from UniProt Q99075 63-148) (ligand),"increase of cell invasion (NUGC3, HB-EGF 10 ng/ml)",[1],2.3 fold
same,"increase of cell invasion (NUGC3, HB-EGF 20 ng/ml)",[1],3.5 fold
same,"increase of cell invasion (NUGC3, HB-EGF 50 ng/ml)",[1],4.8 fold
same,"increase of invasion against control (AGS, HB-EGF 10 ng/ml)",[1],4.1 fold
same,"increase of invasion against control (AGS, HB-EGF 20 ng/ml)",[1],4.5 fold
same,"increase of invasion against control (AGS, HB-EGF 50 ng/ml)",[1],3.9 fold
TGF-α (transforming growth factor-α) (from UniProt P01135 40-89) (ligand),"increase of cell invasion (NUGC3, TGF-α 10 ng/ml)",[1],1.7 fold
same,"increase of cell invasion (NUGC3, TGF-α 20 ng/ml)",[1],1.9 fold
same,"increase of cell invasion (NUGC3, TGF-α 50 ng/ml)",[1],1.9 fold
same,"increase of invasion against control (AGS, TGF-α 10 ng/ml)",[1],1.8 fold
same,"increase of invasion against control (AGS, TGF-α 20 ng/ml)",[1],1.8 fold
same,"increase of invasion against control (AGS, TGF-α 50 ng/ml)",[1],1.9 fold
AREG (amphiregulin) (from UniProt P15514 101-198) (ligand),"increase of cell invasion (NUGC3, AREG 200 ng/ml)",[1],1.3 fold
same,"increase of cell invasion (NUGC3, AREG 500 ng/ml)",[1],1.5 fold
B1,"invaded cells relative to HB-EGF alone, % of OD (AGS, HB-EGF 20 ng/ml, antibody 1 µg/ml), Average (%)",[2],49.6%
same,"invaded cells relative to HB-EGF alone, % of OD (AGS, HB-EGF 20 ng/ml, antibody 1 µg/ml), set 1-1",[2],50.6%
same,"invaded cells relative to HB-EGF alone, % of OD (AGS, HB-EGF 20 ng/ml, antibody 1 µg/ml), set 1-2",[2],56.8%
same,"invaded cells relative to HB-EGF alone, % of OD (AGS, HB-EGF 20 ng/ml, antibody 1 µg/ml), set 2-1",[2],57.7%
same,"invaded cells relative to HB-EGF alone, % of OD (AGS, HB-EGF 20 ng/ml, antibody 1 µg/ml), set 2-2",[2],64.2%
same,"invaded cells relative to HB-EGF alone, % of OD (AGS, HB-EGF 20 ng/ml, antibody 1 µg/ml), set 3-1",[2],33.3%
same,"invaded cells relative to HB-EGF alone, % of OD (AGS, HB-EGF 20 ng/ml, antibody 1 µg/ml), set 3-2",[2],34.9%
same,"invaded cells relative to TGF-α alone, % of OD (AGS, TGF-α 20 ng/ml, antibody 1 µg/ml), Average (%)",[3],44.1%
same,"invaded cells relative to TGF-α alone, % of OD (AGS, TGF-α 20 ng/ml, antibody 1 µg/ml), set 1-1",[3],45.1%
same,"invaded cells relative to TGF-α alone, % of OD (AGS, TGF-α 20 ng/ml, antibody 1 µg/ml), set 1-2",[3],41.6%
same,"invaded cells relative to TGF-α alone, % of OD (AGS, TGF-α 20 ng/ml, antibody 1 µg/ml), set 2-1",[3],31.2%
same,"invaded cells relative to TGF-α alone, % of OD (AGS, TGF-α 20 ng/ml, antibody 1 µg/ml), set 2-2",[3],33.8%
same,"invaded cells relative to TGF-α alone, % of OD (AGS, TGF-α 20 ng/ml, antibody 1 µg/ml), set 3-1",[3],57.9%
same,"invaded cells relative to TGF-α alone, % of OD (AGS, TGF-α 20 ng/ml, antibody 1 µg/ml), set 3-2",[3],54.8%
same,"invaded cells relative to AREG alone, % of OD (AGS, AREG 1,000 ng/ml, antibody 1 µg/ml), Average (%)",[4],55.4%
same,"invaded cells relative to AREG alone, % of OD (AGS, AREG 1,000 ng/ml, antibody 1 µg/ml), set 1-1",[4],55.3%
same,"invaded cells relative to AREG alone, % of OD (AGS, AREG 1,000 ng/ml, antibody 1 µg/ml), set 1-2",[4],61.3%
same,"invaded cells relative to AREG alone, % of OD (AGS, AREG 1,000 ng/ml, antibody 1 µg/ml), set 2-1",[4],51.8%
same,"invaded cells relative to AREG alone, % of OD (AGS, AREG 1,000 ng/ml, antibody 1 µg/ml), set 2-2",[4],53.1%
same,"invaded cells relative to HB-EGF alone, % of OD (NUGC3, HB-EGF 50 ng/ml, antibody 1 µg/ml), Average (%)",[5],39.2%
same,"invaded cells relative to HB-EGF alone, % of OD (NUGC3, HB-EGF 50 ng/ml, antibody 1 µg/ml), set 1-1",[5],18.8%
same,"invaded cells relative to HB-EGF alone, % of OD (NUGC3, HB-EGF 50 ng/ml, antibody 1 µg/ml), set 1-2",[5],21%
same,"invaded cells relative to HB-EGF alone, % of OD (NUGC3, HB-EGF 50 ng/ml, antibody 1 µg/ml), set 2-1",[5],57.7%
same,"invaded cells relative to HB-EGF alone, % of OD (NUGC3, HB-EGF 50 ng/ml, antibody 1 µg/ml), set 2-2",[5],64.2%
same,"invaded cells relative to HB-EGF alone, % of OD (NUGC3, HB-EGF 50 ng/ml, antibody 1 µg/ml), set 3-1",[5],41.7%
same,"invaded cells relative to HB-EGF alone, % of OD (NUGC3, HB-EGF 50 ng/ml, antibody 1 µg/ml), set 3-2",[5],31.9%
same,"invaded cells relative to TGF-α alone, % of OD (NUGC3, TGF-α 50 ng/ml, antibody 1 µg/ml), Average (%)",[6],32.5%
same,"invaded cells relative to TGF-α alone, % of OD (NUGC3, TGF-α 50 ng/ml, antibody 1 µg/ml), set 1-1",[6],31.5%
same,"invaded cells relative to TGF-α alone, % of OD (NUGC3, TGF-α 50 ng/ml, antibody 1 µg/ml), set 1-2",[6],27.3%
same,"invaded cells relative to TGF-α alone, % of OD (NUGC3, TGF-α 50 ng/ml, antibody 1 µg/ml), set 2-1",[6],31.4%
same,"invaded cells relative to TGF-α alone, % of OD (NUGC3, TGF-α 50 ng/ml, antibody 1 µg/ml), set 2-2",[6],30%
same,"invaded cells relative to TGF-α alone, % of OD (NUGC3, TGF-α 50 ng/ml, antibody 1 µg/ml), set 3-1",[6],36.4%
same,"invaded cells relative to TGF-α alone, % of OD (NUGC3, TGF-α 50 ng/ml, antibody 1 µg/ml), set 3-2",[6],38.3%
same,"invaded cells relative to AREG alone, % of OD (NUGC3, AREG 500 ng/ml, antibody 1 µg/ml), Average (%)",[7],54.8%
same,"invaded cells relative to AREG alone, % of OD (NUGC3, AREG 500 ng/ml, antibody 1 µg/ml), set 1-1",[7],40.2%
same,"invaded cells relative to AREG alone, % of OD (NUGC3, AREG 500 ng/ml, antibody 1 µg/ml), set 1-2",[7],50.7%
same,"invaded cells relative to AREG alone, % of OD (NUGC3, AREG 500 ng/ml, antibody 1 µg/ml), set 2-1",[7],59.8%
same,"invaded cells relative to AREG alone, % of OD (NUGC3, AREG 500 ng/ml, antibody 1 µg/ml), set 2-2",[7],59.6%
same,"invaded cells relative to AREG alone, % of OD (NUGC3, AREG 500 ng/ml, antibody 1 µg/ml), set 3-1",[7],62.4%
same,"invaded cells relative to AREG alone, % of OD (NUGC3, AREG 500 ng/ml, antibody 1 µg/ml), set 3-2",[7],56.1%
